According to patent publication US20050244864A1, “Development and use of fluorescent probes of unbound analytes” (priority 2004, published 2005):

Legend:
[1] = Screening of FFA-insensitive probes for response to UCB:BSA complexes (ΔI/Io); format: binding; conditions: fractional change in fluorescence intensity
Protocol: A probe for unbound unconjugated bilirubin (UCBu) was developed and used to measure concentrations of UCBu in plasma spiked with a defined quantity of unconjugated bilirubin (UCB). Using 384-well plates, 335 mutant probes that were insensitive to FFA were screened for their response to UCB:BSA complexes at UCB:BSA ratios of 1:1 and 1:2 in aqueous buffer. All probes were prepared from rI-FABP-L72A with 1 to 5 mutations. Screening was conducted by comparing the fractional change in fluorescence intensity (ΔI/Io, where ΔI is the difference in probe intensity in the presence and absence of UCB and Io is the intensity in the absence of UCB) for the probes with that for ADIFAB2. This value was calculated for two emission wavelengths: 440 and 500 nm. […] The emitted fluorescence of these probes is quenched by binding of UCB.

[2] = Probe calibration: binding affinities for fatty acids
Protocol: In a preferred embodiment, the template FABP is recombinant rat intestinal fatty acid binding protein (rI-FABP). Derivatization with acrylodan is performed using known methods substantially as previously described (U.S. Pat. No. 5,470,714 & Richieri, G. V, et al., J. Biol. Chem., (1992) 276: 23495-23501), and the resulting probe (ADIFAB) is commercially available (FFA Sciences LLC, San Diego, Calif.). […] The wavelength emitted by the fluorescently-labeled FABP depends upon the label and protein used. In an alternate preferred embodiment, the template protein is rI-FABP that has Ala substituted for Leu at position 72 (rI-FABP-L72A) with the resulting probe named ADIFAB2. […] Experiments typically involve measuring the fluorescence response within both emission maxima or at wavelengths for which the effect of interfering molecules such as hemoglobin can be eliminated as described in (U.S. application Ser. No. 10/670,958 and PCT/US2004/030521) and the calculation of the ratio ‘R’ of the two fluorescence intensities. The baseline value for this ratio, measured in the absence of analyte, is designated R0.
For each probe considered to have a useful phenotype, the sequence is determined, milligram quantities of the probe are prepared and the probe is calibrated. […] Spectra of probes were analyzed for true ratio behavior. […]

B1: ADIFAB2: rI-FABP with Ala substituted for Leu at position 72 (rI-FABP-L72A), derivatized with acrylodan; reference probe (protein, UniProt P02693 2-132, looked up, variant L72A)
Fatty acid-binding protein, …: AFDGTWKVDRNENYEKFMEKMGINVVKRKLGAHDNLKLTITQEGNKFTVKESSNFRNIDVVFELGVDFAYSAADGTELTGTWTMEGNKLVGKFKRVDNGKELIAVREISGNELIQTYTYEGVEAKRIFKKE
modifications: acrylodan label
ΔI/Io 1:1 UCB:BSA 440 nm ([1]; UCB:BSA 1:1, emission 440 nm): −0.40
ΔI/Io 1:1 UCB:BSA 500 nm ([1]; UCB:BSA 1:1, emission 500 nm): −0.34
ΔI/Io 1:2 UCB:BSA 440 nm ([1]; UCB:BSA 1:2, emission 440 nm): −0.19
ΔI/Io 1:2 UCB:BSA 500 nm ([1]; UCB:BSA 1:2, emission 500 nm): −0.16
binding affinities relative to ADIFAB [2]: about 10 fold
